From US12702716B2, “Monocyte-specific aptamers and uses thereof for delivering therapeutic agents to heart” (Academia Sinica, priority 2020, dated 2026) come the findings set out here.

Data set [1] concerns mouse endothelial cell line SVEC. Briefly: Flow cytometry binding of Cy5-labeled aptamers to SVEC (negative selection). To be noted: 200 nM Cy5-aptamer, 4° C., 30 minutes; FIG. 2A. The method, then:
(§1) Cy5-labeled J10 and S2 were also incubated with the mouse endothelial cell line SVEC which was used as a negative selection. In brief, 5×10^5 of each selected cell line was pre-mixed in a bloc king buffer (20% FBS and 10% salmon sperm DNA in PBS) at 4° C. for 30 minutes. After that, the cells were reacted with 200 nM Cy5-J10 or Cy5-S2 in the blocking buffer at 4° C. for 30 minutes. Finally, the sample was subjected to flow cytometry using standard protocols known in the art.
On the technique in general: A flow cytometer gives signals particle by particle.

The test system of data set [2] is J774A.1 monocyte cell line. The data set can be described thus: Flow cytometry binding of Cy5-labeled aptamers to J774A.1. As to conditions: 200 nM Cy5-aptamer, 4° C., 30 minutes; FIG. 2A. Further details: species or system mouse. The method, then: as §1
Data set [3] has as its system human monocyte cell line THP-1. The data set can be described thus: Flow cytometry binding of Cy5-labeled aptamers to THP-1. To be noted: 200 nM Cy5-aptamer, 4° C., 30 minutes; FIG. 3. The method, then: as §1, with “To confirm that J10 binding, but not S2 binding, was selective to human monocytes in vitro, Cy5-labeled” for “Cy5-labeled”, “the human monocyte cell lines, THP-1 and U937, and human umbilical cord” for “the mouse”, “endothelial cells (HUVEC),” for “endothelial cell line SVEC”, “which were” for “which was”, “negative control.” for “negative selection.”

Data set [4] relates to human umbilical cord endothelial cells (HUVEC). The data set can be described thus: Flow cytometry binding of Cy5-labeled aptamers to HUVEC (negative control). To be noted: 200 nM Cy5-aptamer, 4° C., 30 minutes; FIG. 3. The method, then: as §1, with “To confirm that J10 binding, but not S2 binding, was selective to human monocytes in vitro, Cy5-labeled” for “Cy5-labeled”, “the human monocyte cell lines, THP-1 and U937, and human umbilical cord” for “the mouse”, “endothelial cells (HUVEC),” for “endothelial cell line SVEC”, “which were” for “which was”, “negative control.” for “negative selection.”

In data set [5] the test system is human monocyte cell line U937. The data set can be described thus: Flow cytometry binding of Cy5-labeled aptamers to U937. To be noted: 200 nM Cy5-aptamer, 4° C., 30 minutes; FIG. 3. The method, then: as §1, with “To confirm that J10 binding, but not S2 binding, was selective to human monocytes in vitro, Cy5-labeled” for “Cy5-labeled”, “the human monocyte cell lines, THP-1 and U937, and human umbilical cord” for “the mouse”, “endothelial cells (HUVEC),” for “endothelial cell line SVEC”, “which were” for “which was”, “negative control.” for “negative selection.”

The subject of data set [6] is RAW264.7 monocyte cell line. The data set can be described thus: Flow cytometry binding of Cy5-labeled aptamers to RAW264.7. To be noted: 200 nM Cy5-aptamer, 4° C., 30 minutes; FIG. 2A. Further details: species or system mouse. The method, then:
as §1

Data set [7] concerns circulating myeloid cells (CD45+ CD11b+ cells). The data set can be described thus: Ex vivo binding to peripheral blood cells by flow cytometry. Further details: species or system mouse. To be noted: 2 μM Cy5-Apt, 30 minutes at 4° C., peripheral blood of healthy mice; FIG. 2D. The method, then:
To test for ex vivo binding specificity and affinity, 100 μL peripheral blood from healthy mice was withdrawn via the submandibular vein, collected in EDTA-containing anticoagulant tubes (BD Vacutainer), and incubated with 2 mL ACK lysing buffer for 10 minutes to lyse the red blood cells. After that, 2% FBS in PBS was added to stop the reaction. Following centrifugation (300 g for 3 minutes at 4° C.) the supernatants were removed. One million cells were blocked by CD16/CD32 Fc blocking antibody (1:100; Invitrogen) after incubation for 20 minutes. Then the cells were stained for CD45 (PE-Cy7; 1:100; Biolegend), CD11b (PE; 1:200; Biolegend) and 2 μM Cy5-Apt for 30 minutes at 4° C. Finally, the cells were washed by 2% FBS in PBS and subjected to flow cytometry using standard protocols known in the art.

For data set [8], the system named is infarct area of the injured hearts. To be noted: mouse, iv. The method, then:
as §1
To generate the murine I/R models, 8-10 weeks old mice were anesthetised with 80 mg/kg Zoletil 50 and 3.5 mg/kg Rompun and given O2 via a tracheal tube on the 37° C. heating pad. The heart was accessed via left thoracotomy between the third and fourth ribs. The left anterior descending coronary artery was temporarily ligated with sutures 7-0 polypropylene through polyethylene-10 tubing for 45 minutes. Subsequently, polyethylene-10 tubing was removed to induce myocardial ischemia/reperfusion injury. The success of the surgery was evaluated by echocardiography on the following day.

B1: S2: control aptamer, scrambled J10 sequence with same nucleotide composition, SEQ ID NO. 5 (nucleic acid)
DNA: CAATAGAGTCGTACAGGTCGTGAGAAGGCGTTGGTCTATCGGGGTCGTGGACTGTCCAAGGGCATGACCGGTCTGACGGTGGCCAGAGACGCAGGAGGGG
modifications: DNA, backbone and methylation of C not given here; Cy5 label
In the case of B1, in data set [1], the “detection of Cy5-labeled aptamer in SVEC” value is given as “no detection”. Also, the “percentage of Cy5-labeled monocytes (J774A.1)” value in data set [2] is “but not S2, was capable of binding selectively to monocytes in vitro”. Also, the “binding affinity to THP-1” value in data set [3] is reported as “no binding affinity”. Also, the “binding affinity to HUVEC” value in data set [4] is “no binding affinity”. The “binding affinity to U937” value in data set [5] is recorded as “no binding affinity”. Besides, in data set [6], the “percentage of Cy5-labeled monocytes (RAW264.7)” value is “but not S2, was capable of binding selectively to monocytes in vitro”.

B2: J10: monocyte-specific DNA aptamer from cell-SELEX, SEQ ID NO. 4 (Table 2); Cy5-labeled for flow cytometry (nucleic acid)
DNA: CAATAGAGTCGTACAGGTCGACGCTCGGATGCCACTACAGGGATGGGAGGGAGGGGGCTCGTGGCGGCTAGGGGGTATAACTCATGGACGTGCTGGTGAC
modifications: DNA, backbone and methylation of C not given here; Cy5 label
For B2, the “detection of Cy5-labeled aptamer in SVEC” value in data set [1] was “no detection”. Also, the “affinity to circulating myeloid cells (CD45+ CD11b+ cells)” value in data set [7] was “high affinity”. Also, the “percentage of Cy5-labeled monocytes (J774A.1)” value in data set [2] is recorded as “significantly higher than the percentage of Cy5-labeled S2 monocytes”. Besides, the “binding affinity to THP-1” value in data set [3] is listed as “high binding affinity”. Besides, the “binding affinity to HUVEC” value in data set [4] was “but not human endothelial cell line HUVEC”. For the same molecule, the “binding affinity to U937” value in data set [5] was “high binding affinity”. Moreover, the “percentage of Cy5-labeled monocytes (RAW264.7)” value in data set [6] is listed as “significantly higher than the percentage of Cy5-labeled S2 monocytes”. In addition, the “in vivo targeting of aptamer to the injured site (PCR)” value in data set [8] was “confirmed in vivo targeting ability”.
